Measurements: patent US20220259593A1, “CONTROL OF MAMMALIAN GENE DOSAGE USING CRISPR” (The Regents of the University of California, priority 2019, published 2022)
Changes are numbered by the printed parent chain.

B1: cr677 (nucleic acid)
guide: GTTTAAGAGCTAAGCTGGAAACAGCATAGCAAGTTTAAATTAGGCTAGTCCGTTATCAACTTGAAAAAGTGGCACCGAGTCGGTGCT
modifications: listed as DNA, chemistry not fully specified
B2: cr357 (nucleic acid)
guide: B1 guide with T34G, T41A, A74T, T84A
modifications: listed as DNA, chemistry not fully specified
B3: cr301 (nucleic acid)
guide: B1 guide with G33C, T41A, G79T
modifications: listed as DNA, chemistry not fully specified
B4: cr007 (nucleic acid)
guide: B1 guide with T3A, T41A
modifications: listed as DNA, chemistry not fully specified
B5: cr208 (nucleic acid)
guide: B1 guide with T41A, G52T, T54C, A66G
modifications: listed as DNA, chemistry not fully specified
B6: cr570 (nucleic acid)
guide: B1 guide with G33C, T41A, A74T, T84A
modifications: listed as DNA, chemistry not fully specified
B7: cr681 (nucleic acid)
guide: B1 guide with T41A, G48C, C57T
modifications: listed as DNA, chemistry not fully specified
B8: cr107 (nucleic acid)
guide: B1 guide with T41A, G43T, C51A, C75A, G83T
modifications: listed as DNA, chemistry not fully specified
B9: cr202 (nucleic acid)
guide: B1 guide with G33C, T41A, G72A, C86T
modifications: listed as DNA, chemistry not fully specified
B10: cr593 (nucleic acid)
guide: B1 guide with T41A, A59C, T70G
modifications: listed as DNA, chemistry not fully specified
B11: cr638 (nucleic acid)
guide: B1 guide with T34C, T41A, C45G, G48C
modifications: listed as DNA, chemistry not fully specified
B12: cr222 (nucleic acid)
guide: B1 guide with T34G, T41A, A59G, T70C
modifications: listed as DNA, chemistry not fully specified
B13: cr988 (nucleic acid)
guide: B1 guide with G33C, T41A, C60G, G69C
modifications: listed as DNA, chemistry not fully specified
B14: cr743 (nucleic acid)
guide: B1 guide with G33C, T41A, A74G, T84C
modifications: listed as DNA, chemistry not fully specified
B15: cr830 (nucleic acid)
guide: B1 guide with T41A, T49G, G72T
modifications: listed as DNA, chemistry not fully specified
B16: cr574 (nucleic acid)
guide: B1 guide with A37C, T41A
modifications: listed as DNA, chemistry not fully specified
B17: cr767 (nucleic acid)
guide: B1 guide with T34A, T41A, A78T
modifications: listed as DNA, chemistry not fully specified
B18: cr757 (nucleic acid)
guide: B1 guide with G33C, T41A, T62A, A67T
modifications: listed as DNA, chemistry not fully specified
B19: cr314 (nucleic acid)
guide: B1 guide with T34G, T41A, C73A, G85T
modifications: listed as DNA, chemistry not fully specified
B20: cr625 (nucleic acid)
guide: B1 guide with T34C, T41A, G77T, C81A
modifications: listed as DNA, chemistry not fully specified
B21: cr138 (nucleic acid)
guide: B1 guide with T34C, T41A, C76G, G82C
modifications: listed as DNA, chemistry not fully specified
B22: cr571 (nucleic acid)
guide: B1 guide with T34G, T41A, T62C, A67G
modifications: listed as DNA, chemistry not fully specified
B23: cr312 (nucleic acid)
guide: B1 guide with T34G, T41A, T61G, A68C
modifications: listed as DNA, chemistry not fully specified
B24: cr095 (nucleic acid)
guide: B1 guide with T3A, A8T, T41A
modifications: listed as DNA, chemistry not fully specified
B25: cr211 (nucleic acid)
guide: B1 guide with T41A, G44T
modifications: listed as DNA, chemistry not fully specified
B26: cr151 (nucleic acid)
guide: B1 guide with G33C, T41A, T53G
modifications: listed as DNA, chemistry not fully specified
B27: cr933 (nucleic acid)
guide: B1 guide with T34G, T41A, G72T, C86A
modifications: listed as DNA, chemistry not fully specified
B28: cr378 (nucleic acid)
guide: B1 guide with T41G
modifications: listed as DNA, chemistry not fully specified
B29: cr335 (nucleic acid)
guide: B1 guide with T41A, G72A, A74G, T84C, C86T
modifications: listed as DNA, chemistry not fully specified
B30: cr313 (nucleic acid)
guide: B1 guide with T41A, C73G, A74T, C75G, C76G, G83C, G85C
modifications: listed as DNA, chemistry not fully specified
B31: cr078 (nucleic acid)
guide: B1 guide with A5T, A6G, T41A
modifications: listed as DNA, chemistry not fully specified
B32: cr188 (nucleic acid)
guide: B1 guide with T41A, G43T, C51A, T61C, A68G
modifications: listed as DNA, chemistry not fully specified
B33: cr738 (nucleic acid)
guide: B1 guide with A32T
modifications: listed as DNA, chemistry not fully specified
B34: cr708 (nucleic acid)
guide: B1 guide with T41A, G43T, C51A
modifications: listed as DNA, chemistry not fully specified
B35: cr010 (nucleic acid)
guide: B1 guide with T4A, T41A
modifications: listed as DNA, chemistry not fully specified
B36: cr498 (nucleic acid)
guide: B1 guide with A39T, T41A
modifications: listed as DNA, chemistry not fully specified
B37: cr716 (nucleic acid)
guide: B1 guide with A31C, G33T, T41A
modifications: listed as DNA, chemistry not fully specified
B38: cr880 (nucleic acid)
guide: B1 guide with T34G, T41A, C75T, G83A
modifications: listed as DNA, chemistry not fully specified
B39: cr616 (nucleic acid)
guide: B1 guide with T41A, C60G, T61A, A68T, G69C
modifications: listed as DNA, chemistry not fully specified
B40: cr526 (nucleic acid)
guide: B1 guide with T41A, G43T, C51A, A74G, T84C
modifications: listed as DNA, chemistry not fully specified
B41: cr241 (nucleic acid)
guide: B1 guide with G33C, T41A, T61A, A68T
modifications: listed as DNA, chemistry not fully specified

test system: K562 CRISPRi cells; experiment: Constant region variant library pooled growth screen, K562; format: cell-based, human; conditions: sgRNA constant region variants; activity relative to the original, un-modified constant region cr995
In short: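 Cells were selected with puromycin for 2 days and then kept in RPMI-1640 spinner cultures, with duplicates handled separately. Targeting sequences comprised 3 sgRNAs per essential gene for 10 genes plus six non-targeting controls. Activities were normalized against pairing with the unmodified scaffold.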

Compared with B1, B2 is lower in Mean relative activity: 0.04623 for the first, 0.03253 for the second.

First: B3
Second: B4
The Mean relative activity of the first is lower: 0.03132 for the first, 0.03285 for the second.

Compared with B5, B6 is lower in Mean relative activity: 0.03711 for the first, 0.02846 for the second.

Going from B7 to B8, the Mean relative activity rises from 0.03559 to 0.03837.

Compared with B9, B10 is higher in Mean relative activity: 0.03423 for the first, 1.035 for the second.

First: B11
Second: B12
The Mean relative activity of the first is lower: 0.03012 for the first, 0.03915 for the second.

Compared with B13, B14 is higher in Mean relative activity: 0.0305 for the first, 0.03495 for the second.

Going from B15 to B16, the Mean relative activity rises from 0.02925 to 0.03217.

Going from B17 to B18, the Mean relative activity falls from 0.0381 to 0.02851.

First: B19
Second: B20
The Mean relative activity of the first is lower: 0.03303 for the first, 0.04332 for the second.

First: B21
Second: B22
The Mean relative activity of the first is higher: 0.04307 for the first, 0.03194 for the second.

Compared with B23, B24 is lower in Mean relative activity: 0.03032 for the first, 0.02974 for the second.

Going from B25 to B26, the Mean relative activity falls from 0.04075 to 0.03186.

First: B27
Second: B28
The Mean relative activity of the first is lower: 0.0286 for the first, 0.02893 for the second.

Going from B29 to B30, the Mean relative activity falls from 1.036 to 0.03202.

Going from B31 to B32, the Mean relative activity rises from 0.03507 to 0.04409.

Compared with B33, B34 is higher in Mean relative activity: 0.03306 for the first, 0.0394 for the second.

Going from B35 to B36, the Mean relative activity rises from 0.02976 to 0.03563.

First: B37
Second: B38
The Mean relative activity of the first is lower: 0.03033 for the first, 0.03183 for the second.

First: B39
Second: B40
The Mean relative activity of the first is higher: 1.035 for the first, 0.03359 for the second.

With B41 the Mean relative activity was 0.03304.
